Results reported in patent US20180362652A1 (Biogen, published 2018).

How the values were obtained:
human C1q = target: T1, human C1q (human, UniProt P02745 23-245; P02746 28-253; P02747 29-245); assay: C1q ELISA: antibody coated in a dilution series, human C1q at 2 µg/mL, read at 450 nm; column C (midpoint, the C value of paragraph 430) of the printed 4-parameter fit; the axis reads Concentration with no unit, the unit of the coated antibody is from the legend paragraph 61; A 0.061, B 2.527, D 2.212, R^2 1
T1 construct: also called complement component C1q
T1 sequence (P02745 23-245 limits assumed, chain 1 of 3): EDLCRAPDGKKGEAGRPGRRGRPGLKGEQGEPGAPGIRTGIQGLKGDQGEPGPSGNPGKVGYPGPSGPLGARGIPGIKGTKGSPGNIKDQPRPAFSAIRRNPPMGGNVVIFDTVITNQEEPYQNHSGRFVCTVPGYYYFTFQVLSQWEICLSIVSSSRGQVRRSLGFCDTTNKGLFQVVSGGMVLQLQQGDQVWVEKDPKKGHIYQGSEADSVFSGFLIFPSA
T1 sequence (P02746 28-253 limits assumed, chain 2 of 3): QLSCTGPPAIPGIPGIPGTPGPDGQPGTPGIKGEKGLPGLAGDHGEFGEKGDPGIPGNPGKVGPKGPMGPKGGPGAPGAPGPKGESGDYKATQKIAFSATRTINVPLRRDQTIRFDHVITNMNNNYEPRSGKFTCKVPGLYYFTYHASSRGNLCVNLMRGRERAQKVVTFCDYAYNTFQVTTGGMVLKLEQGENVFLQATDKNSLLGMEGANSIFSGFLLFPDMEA
T1 sequence (P02747 29-245 limits assumed, chain 3 of 3): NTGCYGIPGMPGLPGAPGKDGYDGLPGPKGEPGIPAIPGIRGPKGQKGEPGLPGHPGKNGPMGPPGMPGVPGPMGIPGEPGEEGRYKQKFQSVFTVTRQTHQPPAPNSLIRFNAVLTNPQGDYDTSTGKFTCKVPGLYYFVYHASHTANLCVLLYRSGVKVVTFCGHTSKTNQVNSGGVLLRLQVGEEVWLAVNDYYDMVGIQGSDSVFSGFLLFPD

[1] = target: T2, cynomolgus monkey BDCA2 (full-length, cell surface, E73 SNP form) (cynomolgus monkey, UniProt Q8WTT0 1-213 (human entry)); assay: flow cytometry, whole blood pDCs, average of the twelve cynomolgus monkey donors
T2 construct: also called cyno BDCA2; surface cynomolgus monkey BDCA2
T2 chain: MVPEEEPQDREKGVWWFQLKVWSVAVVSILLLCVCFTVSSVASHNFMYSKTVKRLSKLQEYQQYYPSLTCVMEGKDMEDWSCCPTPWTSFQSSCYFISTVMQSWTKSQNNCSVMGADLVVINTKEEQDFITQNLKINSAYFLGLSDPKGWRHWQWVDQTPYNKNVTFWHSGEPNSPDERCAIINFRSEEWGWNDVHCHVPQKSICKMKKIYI
Method: (§1) The maximal values were taken from the values at the plateau in each assay (FIGS. 24 and 25).
(§2) MFI of PE was calculated with FlowJo software, and EC50 curves were generated in GraphPad Prism software.

[2] = target: T2, cynomolgus monkey BDCA2 (full-length, …); assay: flow cytometry, whole blood pDCs of cynomolgus monkey donor 5, anti-human IgG PE secondary
Method: as §1, §2

[3] = target: T2, cynomolgus monkey BDCA2 (full-length, …); assay: flow cytometry, whole blood pDCs of cynomolgus monkey donor 10, anti-human IgG PE secondary
Method: as §1, §2

[4] = target: T3, rat Clec4b2 (full-length, cell surface) (rat); assay: dilution titration direct FACS on transiently transfected 293E cells
T3 construct: 293E cells co-transfected with rat FcεRIγ; Genbank NM_001005896; also called surface rat Clec4b2; closest rat homolog of human BDCA2
T3 chain: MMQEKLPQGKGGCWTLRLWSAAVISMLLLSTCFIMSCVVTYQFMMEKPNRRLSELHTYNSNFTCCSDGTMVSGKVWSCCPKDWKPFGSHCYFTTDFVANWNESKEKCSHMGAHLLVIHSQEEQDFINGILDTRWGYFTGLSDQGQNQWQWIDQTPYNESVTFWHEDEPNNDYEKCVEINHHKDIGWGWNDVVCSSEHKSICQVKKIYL

[5] = target: T4, human BDCA2 (full-length, cell surface) (human, UniProt Q8WTT0 1-213); assay: FACS
T4 construct: also called huBDCA2; surface human BDCA2
T4 sequence: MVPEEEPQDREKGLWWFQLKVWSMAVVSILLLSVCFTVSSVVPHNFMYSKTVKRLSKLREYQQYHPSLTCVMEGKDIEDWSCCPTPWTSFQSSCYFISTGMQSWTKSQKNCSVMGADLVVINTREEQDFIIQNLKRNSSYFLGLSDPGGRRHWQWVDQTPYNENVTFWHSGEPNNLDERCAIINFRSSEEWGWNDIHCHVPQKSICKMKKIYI

[6] = target: T2, cynomolgus monkey BDCA2 (full-length, …); assay: FACS
[7] = target: T2, cynomolgus monkey BDCA2 (full-length, …); assay: cell-based or functional assay
[8] = target: the molecule itself; assay: AlphaScreen self-association assay: glutathione donor and acceptor beads carrying human FcRIIa (CD32a) GST; a signal needs antibody on both beads to associate with itself
Method: The AlphaScreen assay is a homogeneous proximity assay utilizing glutathione donor and acceptor beads (Perkin Elmer) to bind human FcRIIa (CD32a) GST. Various concentrations of the antibodies to be tested were added in this mixture. […] The level of emission detected by the Envision (Perkin Elmer) instrument is proportional to the degree of self-association.

[9] = target: T2, cynomolgus monkey BDCA2 (full-length, …); assay: indirect method: flow cytometry of pDCs in cynomolgus whole blood, unlabelled BIIB059 titrated, free BDCA2 detected with the competitor BIIB059-A647 at 10 ug/mL [panel Cynomolgus monkey 7]
Method: (§3) The MFI of PE (open symbols, graphed on the left y-axis) or A647 (closed symbols, graphed on the right y-axis) was calculated in FlowJo software, and graphed using GraphPad Prism software (four-parameter nonlinear regression curve fit of log-transformed data).

[10] = target: T2, cynomolgus monkey BDCA2 (full-length, …); assay: flow cytometry, whole blood pDCs of cynomolgus monkey donor 1, anti-human IgG PE secondary
Method: The MFI of PE was calculated in FlowJo software, and the percent of maximal binding, using the 40 μg/mL point as 100%, was computed. Each line represents one individual cynomolgus monkey, for a total of twelve cynomolgus monkeys, and graphed using GraphPad Prism software (four-parameter nonlinear regression curve fit of log-transformed data). Staining was repeated once a week for three weeks total.
as §1, §2

[11] = target: T4, human BDCA2 (full-length, cell surface); assay: cell-based or functional assay
[12] = target: T2, cynomolgus monkey BDCA2 (full-length, …); assay: indirect method: flow cytometry of pDCs in cynomolgus whole blood, unlabelled BIIB059 titrated, free BDCA2 detected with the competitor BIIB059-A647 at 10 ug/mL [panel Cynomolgus monkey 1]
Method: as §3, §1

B1: BIIB059 (antibody, human IgG1, kappa)
heavy: not shown
light: DIQLTQSPSSLSASVGDRVTITCKASQSVDYDGDSYMNWYQQKPGKAPKLLIYAASTLESGVPSRFSGSGSGTDFTLTISSLQPEDFATYYCQQANEDPRTFGQGTKVEIKRTVAAPSVFIFPPSDEQLKSGTASVVCLLNNFYPREAKVQWKVDNALQSGNSQESVTEQDSKDSTYSLSSTLTLSKADYEKHKVYACEVTHQGLSSPVTKSFNRGEC
notes: Humanized IgG1 kappa, mature chains; in some assays labelled with Alexa647; also called hu24F4 H4/L1 C95A; H4-L1-C95A (YL751/YL746)
- EC50 (human C1q): 2.5 µg/mL
- EC50 [1]: 1.2 µg/mL
- EC50 [2]: 0.71 µg/mL
- EC50 [3]: 1.2 µg/mL
- binding result [4]: no binding
- EC50 [5]: 7 nM
- EC50 [6]: 7 nM
- EC50 of BDCA2 internalization on pDCs (cynomolgus monkey 3, IV 10 mg/kg) [7]: 0.15 µg/mL
- EC50 of BDCA2 internalization on pDCs (cynomolgus monkey 4, SC 0.2 mg/kg) [7]: 0.088 µg/mL
- EC50 of BDCA2 internalization on pDCs (cynomolgus monkey 5, IV 1 mg/kg) [7]: 0.087 µg/mL
- EC50 of BDCA2 internalization on pDCs (cynomolgus monkey 6, IV 1 mg/kg) [7]: 0.025 µg/mL
- EC50 of BDCA2 internalization on pDCs (cynomolgus monkey 6, SC 0.2 mg/kg) [7]: 0.046 µg/mL
- EC50 of BDCA2 internalization on pDCs (cynomolgus monkey 7, IV 1 mg/kg) [7]: 0.09 µg/mL
- EC50 of BDCA2 internalization on pDCs (cynomolgus monkey 8, IV 10 mg/kg) [7]: 0.37 µg/mL
- EC50 of BDCA2 internalization on pDCs (cynomolgus monkey 10, IV 10 mg/kg) [7]: 0.126 µg/mL
- EC50 of BDCA2 internalization on pDCs (cynomolgus monkey 12, SC 0.2 mg/kg) [7]: 0.121 µg/mL
- EC50 of BDCA2 internalization on pDCs (mean of the cynomolgus monkeys) [7]: 0.123 µg/mL
- binding result [8]: no binding (tested: 250 µg/ml)
- IC50 (read off the curve) [9]: ~2 µg/mL
- EC50 [10]: 0.81 µg/mL
- EC50 of BIIB059-mediated BDCA2 internalization (whole blood, 10 donors) [11]: 0.02 µg/mL
- IC50 for inhibition of TLR9-induced IFNα production by PBMC [11]: 0.001 µg/mL
- IC50 for inhibition of TLR9-induced IFNα production by PBMC from healthy donors [11]: 0.04 µg/mL
- IC50 for inhibition of immune complex-induced IFNα by pDCs [11]: 0.04 µg/mL
- IC50 of BIIB059 mediated inhibition of TLR9 induced IFNα (whole blood, 10 donors) [11]: 0.07 µg/mL
- IC50 (read off the curve) [12]: ~1 µg/mL
